Results from the Immune Epitope Database (IEDB).
pKd: −log10 of the molar value.

Key:
HLA-A*02:02 = test: IEDB peptide-MHC binding, purified MHC/competitive/radioactivity; filed as Kd, often an IC50 or EC50 that approximates it; ≥ and ≤ were set here for values at or beyond the usual limits of such assays
HLA-A*02:03 = test: as above
HLA-A*02:06 = test: as above
HLA-A*26:01 = test: as above
HLA-B*15:01 = test: IEDB peptide-MHC binding, purified MHC/direct/fluorescence; filed as Kd, often an IC50 or EC50 that approximates it; ≥ and ≤ were set here for values at or beyond the usual limits of such assays
HLA-A*02:01 = test: as above
HLA-A*32:01 = test: IEDB peptide-MHC binding, purified MHC/competitive/radioactivity; filed as Kd, often an IC50 or EC50 that approximates it; ≥ and ≤ were set here for values at or beyond the usual limits of such assays
HLA-A*24:02 = test: as above
HLA-A*30:02 = test: as above
HLA-A*23:01 = test: as above
HLA-A*01:01 [1] = test: as above
HLA-A*03:01 = test: IEDB peptide-MHC binding, purified MHC/direct/fluorescence; filed as Kd, often an IC50 or EC50 that approximates it; ≥ and ≤ were set here for values at or beyond the usual limits of such assays
HLA-A*11:01 = test: as above
HLA-B*44:02 = test: IEDB peptide-MHC binding, purified MHC/competitive/radioactivity; filed as Kd, often an IC50 or EC50 that approximates it; ≥ and ≤ were set here for values at or beyond the usual limits of such assays; settings: source organism: Dengue virus 4 Philippines/H241/1956
HLA-B*58:01 = test: IEDB peptide-MHC binding, purified MHC/direct/fluorescence; filed as Kd, often an IC50 or EC50 that approximates it; ≥ and ≤ were set here for values at or beyond the usual limits of such assays; settings: source organism: Homo sapiens
HLA-A*01:01 [2] = test: as above; settings: source organism: Homo sapiens
HLA-A*69:01 = test: as above
HLA-B*40:01 = test: as above; settings: source organism: Mammarenavirus lassaense
[3] = source organism: Vaccinia virus WR
[4] = source organism: Dengue virus 1 Brazil/97-11/1997
[5] = source organism: Dengue virus 2 Jamaica/1409/1983
[6] = source organism: Vaccinia virus Copenhagen
[7] = source organism: Dengue virus 3 Martinique/1243/1999
[8] = source organism: Dengue virus 1 Nauru/West Pac/1974
[9] = source organism: SARS coronavirus Tor2
[10] = source organism: Mycobacterium tuberculosis
[11] = source organism: Rickettsia conorii
[12] = source organism: Cryptosporidium parvum

MIYDLNAVTT
pKd (HLA-A*02:02; [3]): 6.05 | pKd (HLA-A*02:03; [3]): 6.32 | pKd (HLA-A*02:06; [3]): 6.37

YVIKVSARV
pKd (HLA-A*26:01; source organism: Homo sapiens): 8.06

DIKYDNKLL
pKd (HLA-A*02:02; [3]): 5.85 | pKd (HLA-A*02:03; [3]): ≤ 4.30 | pKd (HLA-A*02:06; [3]): ≤ 4.11

EVTARWLWGF
pKd (HLA-A*26:01; source organism: Dengue virus 1 Singapore/S275/1990): 7.49

FHMDPSGTF
pKd (HLA-B*15:01; source organism: Homo sapiens): 6.33 | pKd (HLA-A*02:01; source organism: Homo sapiens): 4.84

FVDTMSIYIA
pKd (HLA-A*02:02; [3]): 6.81 | pKd (HLA-A*02:03; [3]): 5.62 | pKd (HLA-A*02:06; [3]): 5.96

GSPGKFWNTT
pKd (HLA-A*32:01; [4]): ≤ 4.59

ETLLLLTLLA
pKd (HLA-A*26:01; [5]): ≤ 4.64

RVTKRDESSI
pKd (HLA-A*02:02; [3]): 4.91 | pKd (HLA-A*02:03; [3]): 4.97 | pKd (HLA-A*02:06; [3]): ≤ 4.65

AFLPWHRLF
pKd (HLA-A*24:02; source organism: Homo sapiens): 7.70

FASADNHPKM
pKd (HLA-A*02:02; [3]): ≤ 4.15 | pKd (HLA-A*02:03; [3]): ≤ 4.32 | pKd (HLA-A*02:06; [3]): ≤ 4.16

ILSCIFAFI
pKd (HLA-A*02:02; [6]): 9.10 | pKd (HLA-A*02:03; [6]): 8.51 | pKd (HLA-A*02:06; [6]): 8.05

RVTTELNIV
pKd (HLA-A*02:02; [3]): 5.61 | pKd (HLA-A*02:03; [3]): 6.94 | pKd (HLA-A*02:06; [3]): 7.34

VTLFIDRGSI
pKd (HLA-A*02:02; [3]): 5.42 | pKd (HLA-A*02:03; [3]): 5.65 | pKd (HLA-A*02:06; [3]): 5.52

NGVVTKNGGY
pKd (HLA-A*30:02; [7]): 4.81

GVPPLPLFIF
pKd (HLA-A*24:02; [7]): 6.31

IFGTAYGVLF
pKd (HLA-A*24:02; [8]): 7.42 | pKd (HLA-A*23:01; [8]): 7.98

FLLFLVLIML
pKd (HLA-A*02:02; [9]): 5.80 | pKd (HLA-A*02:03; [9]): 5.86 | pKd (HLA-A*02:06; [9]): 5.53

VAGGLLTVCY
pKd (HLA-A*30:02; [5]): 6.97 | pKd (HLA-A*01:01 [1]; [5]): ≤ 4.43

YTQLRFPKK
pKd (HLA-A*03:01; [10]): 6.31 | pKd (HLA-A*11:01; [10]): 8.37

SLGILCVSI
pKd (HLA-A*32:01; [4]): 6.62

ITINYFLLL
pKd (HLA-A*32:01; [3]): ≤ 4.11

VMPEKRNVV
pKd (HLA-A*02:02; [3]): 5.96 | pKd (HLA-A*02:03; [3]): 7.64 | pKd (HLA-A*02:06; [3]): 5.48

NVTYNIKPV
pKd (HLA-A*02:02; [3]): ≤ 4.64 | pKd (HLA-A*02:03; [3]): 6.82 | pKd (HLA-A*02:06; [3]): 6.07

DAEFVMCLEA
pKd (HLA-A*02:02; [3]): 5.62 | pKd (HLA-A*02:03; [3]): 5.14 | pKd (HLA-A*02:06; [3]): 4.90

WLVHKQWFLD
pKd (HLA-A*32:01; [4]): 5.68

SWALCEALTL
pKd (HLA-A*24:02; [7]): 6.30 | pKd (HLA-A*23:01; [7]): 6.37

ASDRMGMGV
pKd (HLA-A*01:01 [1]; [7]): 5.86

SLEKAANVQW
pKd (HLA-B*44:02): 4.97

AGILKRWGQL
pKd (HLA-A*32:01; source organism: Dengue virus 4 Philippines/H241/1956): 5.35

KYLYLWSFK
pKd (HLA-A*03:01; source organism: Clostridium botulinum): 6.78

TLVKSGLTEV
pKd (HLA-A*02:02; [3]): 7.19 | pKd (HLA-A*02:03; [3]): 8.53 | pKd (HLA-A*02:06; [3]): 7.35

FAFIDFSKST
pKd (HLA-A*02:02; [3]): 4.93 | pKd (HLA-A*02:03; [3]): 5.62 | pKd (HLA-A*02:06; [3]): 5.85

ELTNKKYRCM
pKd (HLA-A*02:02; [3]): ≤ 4.15 | pKd (HLA-A*02:03; [3]): ≤ 4.15 | pKd (HLA-A*02:06; [3]): ≤ 4.16

KTIISEEYL
pKd (HLA-A*02:02; [3]): 6.04 | pKd (HLA-A*02:03; [3]): 5.91 | pKd (HLA-A*02:06; [3]): 6.82

STDHIPILY
pKd (HLA-B*58:01): 5.69 | pKd (HLA-A*03:01; source organism: Homo sapiens): 5.50 | pKd (HLA-A*11:01; source organism: Homo sapiens): 6.42 | pKd (HLA-A*01:01 [2]): 6.83 | pKd (HLA-A*69:01; source organism: Homo sapiens): 5.13

SMTSDSKSI
pKd (HLA-A*02:02; [3]): 5.08 | pKd (HLA-A*02:03; [3]): 5.64 | pKd (HLA-A*02:06; [3]): ≤ 4.25

LTARATWATN
pKd (HLA-A*32:01; [4]): ≤ 4.35

GPISTLWEGN
pKd (HLA-A*32:01; [5]): 5.04

SEVSNVQRL
pKd (HLA-B*40:01): 7.15

FISPASISSV
pKd (HLA-A*02:02; [3]): 8.52 | pKd (HLA-A*02:03; [3]): 9.95 | pKd (HLA-A*02:06; [3]): 8.69

IIMFDAEKL
pKd (HLA-B*15:01; [11]): 5.47 | pKd (HLA-A*69:01; [11]): 5.96

KMFNSVGGA
pKd (HLA-A*69:01; [12]): ≤ 4.70 | pKd (HLA-A*02:01; [12]): 7.59

PLIISTDQDT
pKd (HLA-A*02:02; [3]): ≤ 4.35 | pKd (HLA-A*02:03; [3]): ≤ 4.45 | pKd (HLA-A*02:06; [3]): ≤ 4.32

FISYNRHNDT
pKd (HLA-A*02:02; [3]): 5.16 | pKd (HLA-A*02:03; [3]): 5.31 | pKd (HLA-A*02:06; [3]): 4.95

YIAGLKIEEI
pKd (HLA-A*02:02; [3]): 8.05 | pKd (HLA-A*02:03; [3]): 8.28 | pKd (HLA-A*02:06; [3]): 6.87

SICEIVYSF
pKd (HLA-A*32:01; [3]): 9.45
